Residue numbers refer to the chain shown, from its start. Names may count otherwise. Values belong to the binder of their own block, whether it stands above or below them.
What was measured:
[1] = target: T1, human factor B (purified, Complement Technology A135) (human, UniProt P00751 26-764); assay: SPR, captured mAb, soluble factor B (summary table)
T1 construct: also called fB; human complement factor B
From the text: (§1) Binding kinetics of mAbs were further characterized using Biacore's Surface Plasmon Resonance (SPR) technology (GE Healthcare, Piscataway, N.J.). For a detailed description of SPR and its applications in affinity measurement, please see Karlsson and Larsson, Antibody Engineering: Methods and Protocols, Methods in Molecular Biology (2003), 248: 389-415. In one exemplary experiment, TA106 Fab and derivative mAbs were captured on chips of a Biacore 3000 analyzer and samples of human factor B of different concentrations were flowed as the antigen over the surface to model soluble human factor B binding, using protocols recommended by the manufacturer (e.g., in the product brochure #BR-9003-31). All these referenced publications are hereby incorporated by reference in their entirety. […] Fab TA106 (Xoma, Lot#TTA1007, 20 mg/mL) was then flowed over one flow cell, followed by injections of human factor B on both flow cells. Concentrations (factor B) between 3.1-200 nM were run. The surface was regenerated between each cycle. […] The affinities of mAbs, i.e., CLS011, CLS012, and CLS013, were determined using a similar capture approach. In one exemplary experiment, human anti-Fc antibody was amine coupled to two flow cells of a CM5 chip. Each of the TA106-originated mAbs was then flowed over one flow cell, followed by injecting human factor B (3.1-200 nM) on both flow cells. […]

[2] = target: T1, human factor B (purified, Complement …); assay: SPR (Biacore 3000), mAb captured by anti-Fc antibody on CM5 chip, soluble human factor B 3.1-200 nM
From the text: as §1

[3] = target: T1, human factor B (purified, Complement …); assay: BLI (Octet), mAb on anti-human Fc biosensor, 25 nM human factor B
Method: (§2) Binding kinetics of TA106-originated mAbs were analyzed using a FortéBio® Octet® biosensor (FortéBio, Inc.) in a similar protocol as described previously. In one exemplary experiment, wild type (CLS011) and the variant S33A (CLS013) mAbs were captured on anti-human Fc biosensors at a concentration of 5 μg/mL, diluted in 1× kinetics buffer (KB, a proprietary formulation containing PBS/Tween). Capture (loading) was carried out for 400 seconds, followed by briefly dipping the biosensors in 1×KB as a wash for 30 seconds. Associations with a titration series of purified human Factor B (Complement Technology, Tyler, Tex.), which concentrations range from 50 to 3 nM (diluted in 1×KB), were carried out for 300 seconds.

[4] = target: T1, human factor B (purified, Complement …); assay: BLI (Octet), mAb on anti-human Fc biosensor, 50 nM human factor B
Method: as §2

[5] = target: T1, human factor B (purified, Complement …); assay: SPR (Biacore), CLS011 captured on anti-Fc surface, soluble factor B 3.1-100 nM flowed; Chi2 0.283
From the text: as §1

[6] = target: T1, human factor B (purified, Complement …); assay: BLI (Octet), mAb on anti-human Fc biosensor, 12.5 nM human factor B
Method: as §2

[7] = target: T1, human factor B (purified, Complement …); assay: cell-based or functional assay
[8] = target: T1, human factor B (purified, Complement …); assay: SPR (Biacore), CLS013 captured on anti-Fc surface, soluble factor B 3.1-100 nM flowed; Chi2 1.05
From the text: as §1

[9] = target: T1, human factor B (purified, Complement …); assay: ELISA, human factor B coated at 0.5 ug/mL, detection with sheep anti-human kappa light chain HRP, abs 450 nm against nM antibody
Method: The binding activities of these mAbs towards factor B were analyzed by ELISA using standard protocols. In one exemplary experiment, MaxiSorp™ ELISA plates (Nunc, #439454, Rochester, N.Y.) were coated with 50 μL of human factor B (Complement Technology, A135, 1 mg/mL, lot 14c) at a concentration of 0.5 μg/mL in carbonate coating buffer (0.795 g carbonate+1.46 g bicarbonate+1 mL 1% NaN₃ (final concentration of 0.002%) in 500 mL water, pH 9.6 (lot 02 August 10)). Plates then were covered with plate sealers and incubated at 37±1° C. for one hour. Following coating, wells were emptied of reagent and washed in a BioTek® ELx405 plate washer (BioTek, Winooski, Vt.) for three times with 200 μL wash solution (PBS/0.05% Tween 20) per well. Following washes, wells were blocked with 100 μL of BSA (1% w/v) and incubated for one hour at room temperature. Wells were then washed again as described above. Fifty microliter samples (i.e., TA106 Fab, CLS011 mAb, CLS012 mAb, and CLS013 mAb) were then added to wells and incubated for one hour at room temperature. […] The plate was read on a Benchmark™ microplate reader (Bio-Rad Laboratories, Hercules, Calif.) at 450 nm. Standard curves were plotted with 4 parameter fit with DeltaSoft® 1.6 software, and sample concentrations were determined from the standard curves.

T1 sequence (P00751 26-764): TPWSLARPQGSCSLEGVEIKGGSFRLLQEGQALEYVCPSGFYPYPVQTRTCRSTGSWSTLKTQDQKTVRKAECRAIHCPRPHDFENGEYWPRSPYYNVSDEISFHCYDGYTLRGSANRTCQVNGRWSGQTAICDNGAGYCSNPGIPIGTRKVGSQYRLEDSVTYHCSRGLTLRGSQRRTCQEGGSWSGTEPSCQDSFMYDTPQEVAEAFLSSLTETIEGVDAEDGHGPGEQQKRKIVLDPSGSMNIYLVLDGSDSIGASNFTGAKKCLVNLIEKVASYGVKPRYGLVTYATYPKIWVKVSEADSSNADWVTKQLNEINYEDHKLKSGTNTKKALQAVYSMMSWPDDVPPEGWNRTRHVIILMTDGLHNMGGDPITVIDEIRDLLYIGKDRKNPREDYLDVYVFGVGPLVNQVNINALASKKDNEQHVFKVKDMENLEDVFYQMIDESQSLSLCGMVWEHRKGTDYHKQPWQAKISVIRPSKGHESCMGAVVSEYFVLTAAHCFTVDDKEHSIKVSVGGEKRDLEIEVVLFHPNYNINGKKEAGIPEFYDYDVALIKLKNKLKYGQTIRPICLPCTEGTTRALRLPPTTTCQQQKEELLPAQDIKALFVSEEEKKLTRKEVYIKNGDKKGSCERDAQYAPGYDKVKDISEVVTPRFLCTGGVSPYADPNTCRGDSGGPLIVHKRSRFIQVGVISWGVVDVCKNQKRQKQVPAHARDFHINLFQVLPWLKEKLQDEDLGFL

- Kd [1]: 15 nM
- Kd [2]: ~15.4 nM
- Kd [3]: 17.3 nM
- koff [3]: 0.00297 s⁻¹
- kon [3]: 171000 M⁻¹ s⁻¹
- Kd [4]: 24.9 nM
- koff [4]: 0.00418 s⁻¹
- kon [4]: 168000 M⁻¹ s⁻¹
- koff [5]: 0.00253 s⁻¹
- kon [5]: 165000 M⁻¹ s⁻¹
- Kd [6]: 11.1 nM
- koff [6]: 0.00289 s⁻¹
- kon [6]: 261000 M⁻¹ s⁻¹
- IC50 (read off the curve); lysis of rabbit red blood cells in 10% normal human serum [7]: ~50 nM
B1: CLS011 (TA106-derivative full-length IgG2/4 mAb, wild type light chain, expressed in CHO cells) (antibody, V domains shown)
VH: EVQLVQSGAEVKKPGASVKVSCKASGYSFTDYYMTWVRQAPGQGLEWMGWINPNSGGTKYAQKFQGRVTMTRDTSISTAYMELSRLRSDDTAVYYCARGYYANSAWFAYWGQGTLVTVSS
VL: DIVMTQSPDSLAVSLGERATINCKSSQSLLNSSTSKNYLAWYQQKPGQPPKLLIYWASTRESGVPDRFSGSGSGTDFTLTISSLQAEDVAVYYCKQVYNLPWTFGQGTKLEIKR
modifications: N-linked glycans on the N31-S32-S33 motif of CDR1; N-linked glycans on the heavy chain (possibly at N296)
notes: Human IgG2/4 full-length mAb; also called CLS011 mAb; TA106-derivative mAb

- Kd [1]: 18 nM
- Kd [2]: ~17.6 nM
- koff [8]: 0.00311 s⁻¹
- kon [8]: 177000 M⁻¹ s⁻¹
- EC50 (read off the curve) [9]: ~0.4 nM
- Kd [3]: 52.2 nM
- koff [3]: 0.00472 s⁻¹
- kon [3]: 90300 M⁻¹ s⁻¹
- Kd [4]: 32.1 nM
- koff [4]: 0.00504 s⁻¹
- kon [4]: 157000 M⁻¹ s⁻¹
- Kd [6]: 37.7 nM
- koff [6]: 0.00428 s⁻¹
- kon [6]: 114000 M⁻¹ s⁻¹
- IC50 (read off the curve); lysis of rabbit red blood cells in 10% normal human serum [7]: ~20 nM
B2: CLS013 (TA106-derivative S33A variant, full-length IgG2/4 mAb, expressed in CHO cells) (antibody, V domains shown)
VH: B1 VH
VL: B1 VL with S33A
modifications: N-linked glycans on the heavy chain
notes: Human IgG2/4 full-length mAb; also called CLS013 mAb; TA106 variant S33A

Reference: patent US20150166643A1 (Alexion, published 2015)
